Data set [1] has as its target T1, ORF2p core (human (Homo sapiens), UniProt O00370 238-1061). The data set is described as follows: cryo-EM (3.66 A); DSF: 20 mM HEPES-KOH pH 7.6, 100 mM NaCl, 1 mM DTT, 2 mM Mg acetate, thermal ramp; crystals: protein 3 mg/mL, 50 mM NaCl dilution, 2 mM MgCl2, 2 mM dTTP, 1.3:1.
Data set [2] deals with T1, ORF2p core. The data set is described as follows: cryo-EM (3.30 A); dTTP, Mg2+; DSF: 20 mM HEPES-KOH pH 7.6, 100 mM NaCl, 1 mM DTT, 2 mM Mg acetate, thermal ramp; crystals: protein 3 mg/mL, 50 mM NaCl dilution, 2 mM MgCl2, 2 mM dTTP, 1.3:1.
Data set [3] addresses ORF2p-His8 core (human (Homo sapiens), UniProt O00370 238-1061). The data set is described as follows: X-ray crystallography (2.1 A); dTTP, Mg2+; DSF: 20 mM HEPES-KOH pH 7.6, 100 mM NaCl, 1 mM DTT, 2 mM Mg acetate, thermal ramp; crystals: protein 3 mg/mL, 50 mM NaCl dilution, 2 mM MgCl2, 2 mM dTTP, 1.3:1.

Results on three molecules are retold here after article PMC10830420.

As for AAAAAAAAAAAAAAAAAAAAAAAAA (ssRNA) [oligo-25(A) ssRNA], the binding result in data set [1] was “binds”.

B1: cryo-EM RNA:DNA hybrid (DNA:RNA)
RNA: GGAGCGAAAUUUUCGC
DNA: GCGAAAATTTCGC
modifications: 3' dideoxy-C on DNA primer
Regarding B1, the binding result in data set [2] is reported as “binds”.

B2: crystallography RNA template:DNA primer hybrid (DNA:RNA)
RNA: UUAGGAAAGCGC
DNA: GCGCTTTCC
modifications: 3' dideoxy-C on DNA primer
With B2, the binding result in data set [3] was “binds”.
